The values that follow come from paper PMC8111780, “NMR structural analysis of the yeast cytochrome c oxidase subunit Cox13 and its interaction with ATP” (BMC Biology, 2021).

One series addresses T1, Cox13 (Saccharomyces cerevisiae, UniProt P32799).
T1 construct: 15 kDa; homodimer
T1 sequence (P32799 1-129): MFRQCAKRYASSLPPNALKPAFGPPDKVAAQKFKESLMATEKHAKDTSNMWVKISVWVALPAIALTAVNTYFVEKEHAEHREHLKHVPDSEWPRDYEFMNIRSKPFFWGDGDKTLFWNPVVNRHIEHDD
The experiment in a line: 1H-15N HSQC NMR titration (chemical shift perturbation, global fit). Format: binding.

In series [1] the target is wildtype S. cerevisiae cytochrome c oxidase (CytcO, Complex IV) with a 6xHis-tag on Cox13 (S. cerevisiae) (UniProt P00401).
Series [2] concerns the target Cox13Δ-CytcO: S. cerevisiae cytochrome c oxidase lacking Cox13, with a Flag-tag on Cox6 (S. cerevisiae) (UniProt P00401).
In another series the test system is T2, Cox13Δ-CytcO.
T2 construct: gene COX1; Complex IV lacking subunit Cox13, Flag-tag on Cox6, purified from yeast membranes in DDM; ATP site not assigned
Put plainly: oxygen consumption (Clark electrode), activity vs ATP. The conditions noted are these: tentative fit of stimulation of turnover; yeast cyt. c 50 μM, ascorbate, TMPD, 0.035% DDM, KPi; allosteric, more than one site. Format: biochemical, Saccharomyces cerevisiae.

Series [3] deals with the molecule itself. The experiment in a line: SEC; Superdex 200 10/300; 20 mM NaPi pH 6.5, 50 mM L-Arg, 50 mM L-Glu, 1 mM DTT, 3 mM DPC; Cox13-DPC complex elutes in a single peak of apparent mass 55-60 kDa.

Sequence of Cox13Δ-CytcO: S. cerevisiae cytochrome c oxidase lacking Cox13, with a Flag-tag on Cox6 (S. cerevisiae) (P00401 whole entry, looked up, stated change not applied): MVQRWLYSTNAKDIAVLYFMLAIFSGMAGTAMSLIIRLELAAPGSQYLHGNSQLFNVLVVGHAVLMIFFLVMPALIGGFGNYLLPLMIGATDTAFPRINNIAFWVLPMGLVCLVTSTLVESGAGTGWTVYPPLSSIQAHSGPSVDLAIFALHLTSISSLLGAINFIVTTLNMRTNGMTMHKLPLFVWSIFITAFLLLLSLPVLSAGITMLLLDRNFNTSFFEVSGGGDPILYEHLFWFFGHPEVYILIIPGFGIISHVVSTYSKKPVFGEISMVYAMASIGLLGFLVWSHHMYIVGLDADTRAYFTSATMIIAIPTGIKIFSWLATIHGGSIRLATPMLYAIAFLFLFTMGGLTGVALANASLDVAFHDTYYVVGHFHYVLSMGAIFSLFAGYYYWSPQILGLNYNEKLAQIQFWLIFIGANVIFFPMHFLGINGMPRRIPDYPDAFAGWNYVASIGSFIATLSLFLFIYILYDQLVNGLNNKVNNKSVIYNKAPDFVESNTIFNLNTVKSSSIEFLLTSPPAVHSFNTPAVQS
Sequence of wildtype S. cerevisiae cytochrome c oxidase (CytcO, Complex IV) with a 6xHis-tag on Cox13 (S. cerevisiae) (P00401 whole entry, looked up, one chain of several): as the sequence (P00401 whole entry, looked up, stated change not applied) above

Turning to `Nc1ncnc2c1ncn2[C@@H]1O[C@H](COP(=O)(O)OP(=O)(O)O)[C@@H](O)[C@H]1O` [ADP], at Cox13, the Kd was 17 ± 2 mM.

With “yeast cytochrome c (from UniProt P00044 1-109) (natural protein)”, in series [1], the Km^1 (low Km) for cyt. c, oxygen-consumption turnover of purified CytcO against added yeast cyt. c, no ATP amounted to 1.3 µM; the Km^2 (high Km) for cyt. c, oxygen-consumption turnover of purified CytcO against added yeast cyt. c, no ATP was determined as 20 µM; the single Km for cyt. c, oxygen-consumption turnover of purified CytcO against added yeast cyt. c, with 5 mM ATP was determined as 8.6 µM. Besides, in series [2], the Km^1 (low Km) for cyt. c, oxygen-consumption turnover of purified Cox13Δ-CytcO against added yeast cyt. c, no ATP came to 0.2 µM; the Km^2 (high Km) for cyt. c, oxygen-consumption turnover of purified Cox13Δ-CytcO against added yeast cyt. c, no ATP is 20 µM; the single Km for cyt. c, oxygen-consumption turnover of purified Cox13Δ-CytcO against added yeast cyt. c, with 5 mM ATP worked out at 5.8 µM.

`Nc1ncnc2c1ncn2[C@@H]1O[C@H](COP(=O)(O)OP(=O)(O)OP(=O)(O)O)[C@@H](O)[C@H]1O` [ATP]: the figures for the Kd at Cox13 and in the series with Cox13Δ-CytcO were 15 ± 2 mM and “ATP binds less tight (with tentative Kd in the mM range”, respectively.

B1: Cox13 (cytochrome c oxidase subunit Cox13) from S. cerevisiae, refolded in DPC micelles (natural protein)
chain: ASSLPPNALKPAFGPPDKVAAQKFKESLMATEKHAKDTSNMWVKISVWVALPAIALTAVNTYFVEKEHAEHREHLKHVPDSEWPRDYEFMNIRSKPFFWGDGDKTLFWNPVVNRHIEHDD
notes: Cox13, cytochrome c oxidase subunit of S. cerevisiae; the gene was cloned into pET-28a; predicted mass 15 kDa; residues assigned up to I125; Isotope-labelled (15N and/or 13C) or unlabelled, depending on the experiment; also called Cox13-DPC complex; CoxVIa in mammals (homolog)
B1: the “stoichiometry N” value in series [3] came to 2.
